Assay results as given in patent publication US20220143148A1, “COMPOSITIONS AND METHODS FOR MODULATING CGRP SIGNALING TO REGULATE INTESTINAL INNATE LYMPHOID CELLS” (The Broad Institute, Inc., priority 2019, published 2022).

Tested on: small intestinal immune cells
Experiment: Droplet-based scRNA-seq of small intestinal immune cells (LP and PP), OVA vs PBS, clustering and differential expression
Assay type: in vivo, mouse
Conditions: cluster ID 4, PP
Excerpt: To comprehensively characterize small intestinal immune cells, Applicants generated scRNA-Seq profiles for 58,067 immune cells collected from lamina propria (LP) and Peyer's patch (PP) regions at steady state and after induction of a type 2 inflammatory reaction to ovalbumin (OVA) (Brandt et al., 2003) (FIGS. 1A and 8A). To ensure sufficient representation of rare cells, Applicants combined a normalization strategy—removing by flow sorting either a portion of IgD+ naïve B cells, which are the most abundant cell type in PPs, or all CD19+ and CD3+ T cells (FIG. 8B, Methods)—with profiling of a sufficiently large number of cells number (P>0.99 to recover at least 15 cells from each cluster, Methods) by massively parallel scRNA-seq (Haber et al., 2017) (Methods). Applicants obtained 36,797 and 21,270 high quality cells passing initial filtering (Methods) from PP and LP regions, respectively.
Overall, Applicants annotated 27 cell subsets across the two compartments, spanning T cells, B cells, ILCs, dendritic cells (DCs), myeloid cells and stromal cells, in frequencies ranging from 0.07% to 14%. Briefly, Applicants first partitioned the cells from the PP regions by unsupervised clustering (Methods) into 46 clusters, retained the 97% of cells that were robustly assigned cell identities in each cluster (Methods), assigned the cells from the LP regions to the 46 clusters using a classifier (Methods), and visualized the data with scvis (Ding et al., 2018), a deep generative model-based method (FIGS. 1B and 8C, Methods). Next, Applicants identified genes that were differentially expressed between the cells in each cluster and the remaining cells (Table 1, Methods), as well as between pairs of clusters (Table 2), to elucidate identities of similar cell types/states. Applicants excluded from downstream analysis clusters mostly consisting of contaminants from epithelium, likely doublets, or cells with a small number of Unique Molecular Identifiers (UMIs) (FIGS. 1C and 8D), or lacking distinct markers (Methods). Altogether, Applicants retained 27 clusters spanning 85% of the cells and each associated with distinct marker genes (FIG. 8E, Methods).
To induce allergic reaction to OVA, 6 to 7 weeks old mice were sensitized twice, two weeks apart, with 50 μg of OVA plus 1 mg of aluminum potassium sulfate adjuvant via intraperitoneal injection. Two weeks later, mice were orally administered with 50 mg of OVA on every other day for a total of five times. 1 μg of α-CGRP peptide was administered simultaneously when indicated. Mice were deprived of food for 3-4 hours in cages with wood chip bedding for limiting antigen degradation in the stomach before each intragastric challenge.
Isolation of cells from Peyer's patches (PPs). Peyer's patches (PPs) were carefully dissected from the small intestine under a stereo microscope using a fine scissor, pierced once with a fine forcep. Tissues were digested in freshly made digestion buffer (RPMI-1640 containing 100 μg/ml Liberase™ and 50 μg/ml DNase I at 37° C. on a roto-mixer. After 15 min, tissues were very gently mixed using a 1 ml pipette. The supernatant was collected and added to ice-cold MACS buffer (pH 7.4; PBS plus 2% FCS and 2 mM EDTA). Pre-warmed (37° C.) fresh digestion buffer was added to the remaining tissues. After rotation at 37° C. for 15 min, the mixture was vigorously mixed using a 1 ml pipette for 1 min. Supernatants from the two steps were combined and passed through 70 μm filters and stained for FACS (below).
Isolation of cells from the lamina propria (LP). The small intestines were opened longitudinally and washed in ice-cold PBS. For scRNA-seq, roughly 0.5 cm of fragments from each of the distal, middle and proximal regions without visible PPs were collected. Epithelial cells were dissociated by tissue rotation in pre-warmed (37° C.) PBS containing 10 mM EDTA at 37° C. for 15 min, followed by additional incubation on ice for 15 min. Tissues were then shaken vigorously. […]

B1: OVA (protein, UniProt P01012 2-386, looked up)
Ovalbumin: GSIGAASMEFCFDVFKELKVHHANENIFYCPIAIMSALAMVYLGAKDSTRTQINKVVRFDKLPGFGDSIEAQCGTSVNVHSSLRDILNQITKPNDVYSFSLASRLYAEERYPILPEYLQCVKELYRGGLEPINFQTAADQARELINSWVESQTNGIIRNVLQPSSVDSQTAMVLVNAIVFKGLWEKAFKDEDTQAMPFRVTEQESKPVQMMYQIGLFRVASMASEKMKILELPFASGTMSMLVLLPDEVSGLEQLESIINFEKLTEWTSSNVMEERKIKVYLPRMKMEEKYNLTSVLMAMGITDVFSSSANLSGISSAESLKISQAVHAAHAEINEAGREVVGSAEAGVDAASVSEEFRADHPFLFCIKHIATNAVLFFGRCVSP
- H2-T23: percentage of expressing cells in OVA-treated group: 0.264
- Herpud1: percentage of expressing cells in OVA-treated group: 0.33
- Icos: percentage of expressing cells in OVA-treated group: 0.236
- Il2ra: percentage of expressing cells in OVA-treated group: 0.457
- Il18r1: percentage of expressing cells in OVA-treated group: 0.605
- Irf2: percentage of expressing cells in OVA-treated group: 0.306
- Irs2: percentage of expressing cells in OVA-treated group: 0.149
- Itgav: percentage of expressing cells in OVA-treated group: 0.175
- Klf13: percentage of expressing cells in OVA-treated group: 0.417
- Klrk1: percentage of expressing cells in OVA-treated group: 0.133
- Leng9: percentage of expressing cells in OVA-treated group: 0.128
- Map3k14: percentage of expressing cells in OVA-treated group: 0.133
- Mast4: percentage of expressing cells in OVA-treated group: 0.467
- Mbnl2: percentage of expressing cells in OVA-treated group: 0.162
- Minos1: percentage of expressing cells in OVA-treated group: 0.768
- Morf4l2: percentage of expressing cells in OVA-treated group: 0.317
- Neat1: percentage of expressing cells in OVA-treated group: 0.502
- Nedd8: percentage of expressing cells in OVA-treated group: 0.781
- Plekhg1: percentage of expressing cells in OVA-treated group: 0.231
- Ppp1r16b: percentage of expressing cells in OVA-treated group: 0.302
- Ppp2ca: percentage of expressing cells in OVA-treated group: 0.336
- Ptger2: percentage of expressing cells in OVA-treated group: 0.299
- Ptpn7: percentage of expressing cells in OVA-treated group: 0.337
- Raf1: percentage of expressing cells in OVA-treated group: 0.232
- Ramp3: percentage of expressing cells in OVA-treated group: 0.224
- Rassf5: percentage of expressing cells in OVA-treated group: 0.31
- Rcn2: percentage of expressing cells in OVA-treated group: 0.258
- Rel: percentage of expressing cells in OVA-treated group: 0.19
- Rgs1: percentage of expressing cells in OVA-treated group: 0.498
- Rgs3: percentage of expressing cells in OVA-treated group: 0.282
- Rnf19b: percentage of expressing cells in OVA-treated group: 0.427
- Rpa3: percentage of expressing cells in OVA-treated group: 0.175
- S100a6: percentage of expressing cells in OVA-treated group: 0.603
- S100a10: percentage of expressing cells in OVA-treated group: 0.866
- Saraf: percentage of expressing cells in OVA-treated group: 0.557
- Sat1: percentage of expressing cells in OVA-treated group: 0.744
- Scn1b: percentage of expressing cells in OVA-treated group: 0.314
- Sec11a: percentage of expressing cells in OVA-treated group: 0.376
- Serpina3g: percentage of expressing cells in OVA-treated group: 0.587
- Serpinb6b: percentage of expressing cells in OVA-treated group: 0.2
- Ssna1: percentage of expressing cells in OVA-treated group: 0.294
- Taf7: percentage of expressing cells in OVA-treated group: 0.144
- Taf10: percentage of expressing cells in OVA-treated group: 0.297
- Tagap: percentage of expressing cells in OVA-treated group: 0.461
- Tcrg-C1: percentage of expressing cells in OVA-treated group: 0.36
- Tgoln1: percentage of expressing cells in OVA-treated group: 0.286
- Timm13: percentage of expressing cells in OVA-treated group: 0.592
- Tnf: percentage of expressing cells in OVA-treated group: 0.245
- Trim8: percentage of expressing cells in OVA-treated group: 0.223
- Trps1: percentage of expressing cells in OVA-treated group: 0.17
- Tsc22d3: percentage of expressing cells in OVA-treated group: 0.489
- Tspan32: percentage of expressing cells in OVA-treated group: 0.395
- Ttc19: percentage of expressing cells in OVA-treated group: 0.152
- Tuba4a: percentage of expressing cells in OVA-treated group: 0.156
- Tubb4b: percentage of expressing cells in OVA-treated group: 0.347
- Txk: percentage of expressing cells in OVA-treated group: 0.529
- Vegfa: percentage of expressing cells in OVA-treated group: 0.131
- VgIl4: percentage of expressing cells in OVA-treated group: 0.338
- Zc3hav1: percentage of expressing cells in OVA-treated group: 0.145
- Zfand5: percentage of expressing cells in OVA-treated group: 0.252
- 1600014C10Rik: LN (average fold change) (OVA vs PBS): 0.467
- 2010300C02Rik: LN (average fold change) (OVA vs PBS): 0.310
- 2310001H17Rik: LN (average fold change) (OVA vs PBS): 0.484
- 4921524J17Rik: LN (average fold change) (OVA vs PBS): 0.531
- Alyref: LN (average fold change) (OVA vs PBS): −0.564
- Amd1: LN (average fold change) (OVA vs PBS): −0.353
- Asb2: LN (average fold change) (OVA vs PBS): 0.320
- Azin1: LN (average fold change) (OVA vs PBS): −0.472
- Bin3: LN (average fold change) (OVA vs PBS): 0.452
- Bzw1: LN (average fold change) (OVA vs PBS): −0.190
- Cacybp: LN (average fold change) (OVA vs PBS): 0.291
- Cd69: LN (average fold change) (OVA vs PBS): −0.153
- Cdkn1a: LN (average fold change) (OVA vs PBS): −0.202
- Clec2d: LN (average fold change) (OVA vs PBS): 0.489
- Cwc25: LN (average fold change) (OVA vs PBS): −0.463
